The target of the experiment is GST-CypA (human cyclophilin A fused to GST), P62937-1. Put plainly: His6-HIVCA pull-down assay, SDS/PAGE band densitometry. The conditions noted are these: n = 3, parent: est. 0.45, read off a plot.

These results are taken from publication PMC4971840.

For the substance “wild-type HIV-1 capsid protein with an N-terminal 6-his tag (His6-HIVCA) (from UniProt P04591) A77P”, the other: CypA/CA ratio (*P < 0.05) is 0.063.
As to “wild-type HIV-1 capsid protein with an N-terminal 6-his tag (His6-HIVCA) (from UniProt P04591) A78V”, the other: CypA/CA ratio turned out to be 0.43.
The same measure, in the same setting: the value for “wild-type HIV-1 capsid protein with an N-terminal 6-his tag (His6-HIVCA) (from UniProt P04591) L189F” was 0.53; that for “wild-type HIV-1 capsid protein with an N-terminal 6-his tag (His6-HIVCA) (from UniProt P04591) L189I” was 0.36.
The same measure, in the same setting: next, “wild-type HIV-1 capsid protein with an N-terminal 6-his tag (His6-HIVCA) (from UniProt P04591) L189P”: 0.43; “wild-type HIV-1 capsid protein with an N-terminal 6-his tag (His6-HIVCA) (from UniProt P04591) W23A”: 0.26.
